“And” between values parts separate entries of the source, which are not always exact repeats. Identical values can stand only once. Like-named read-outs stand apart in the source and are kept apart here. Marks after values point to notes of the source that are not given here.
Tests used:
[^3H]NECA-bound A2AR [1] = molecular target: T1, [^3H]NECA-bound A2AR (Homo sapiens, UniProt P29274); design: method as in PMID 18664584; conditions: solubilised in DM; cited from earlier work
T1 construct: The library of Ala/Leu scan mutants in the receptor A2aR-(2–316) was expressed from plasmid pRG/III-hs-MBP in E. coli strain DH5α; made in house; host or cells: Escherichia coli DH5α

[^3H]NECA-bound A2AR [2] = Thermostability assay of detergent-solubilised receptor with [3H]NECA bound (ligand plus format); assay type: physicochemical, human; conditions: for Improvement in stability compared to WT based on t1/2 (decrease in rate of unfolding): from Fig. 2c
Description: (§1) […]. After solubilisation in DDM, A2AR was bound to Ni^2+-NTA resin, washed to reduce the DDM concentration and then eluted (see Methods). […]. An aliquot of E. coli cells (14 mL) was thawed on ice and resupended in 500 μL of buffer A [50 mM Tris–HCl (pH 7.4), 0.4 M NaCl, 250 μg/mL lysozyme (Sigma) and 1 mg/mL DNase I (Sigma), supplemented with complete ethylenediaminetetraacetic acid (EDTA)-free Protease inhibitor cocktail (Roche)] and incubated for 1 h at 4 °C. Samples were then sonicated for 1 min at 4 °C using a cup-horn sonicator. The receptors were solubilised by adding 1% DDM and incubated for 1 h at 4 °C. Insoluble material was removed by centrifugation (5 min, 13,000g, 4 °C). The solubilised receptors were partially purified with Ni-NTA agarose (Qiagen). Agarose beads (300 μL) pre-equilibrated in buffer A were added to 700 μL of solubilised receptor. […].
(§2) The sample was incubated for 45 min at 4 °C, then 30 min at the specified temperature and then 30 min at 4 °C. Receptor-bound and free radioligands were separated as previously described on mini gel-filtration columns.[26] Receptor-bound ligands were transferred to a 96-well plate (PerkinElmer) and mixed with 200 μL of Optiphase supermix (PerkinElmer). The bound ^3H-labeled ligand was determined using a 1450 Microbeta Trilux counter (1 min per sample).
(§3) For all the thermostabilisation studies carried out in our laboratory, the apparent Tm is the temperature for which 50% of the solubilised receptor remains folded after 30 min of incubation. The rate constant of the protein denaturation is a function of the temperature, and consequently, thermal denaturation of a protein can be compared to a chemical reaction for which the rate of the reaction is dependant on the temperature. Arrhenius established that any chemical reaction is temperature dependant. […]. The reference measurement representing the total binding activity of the sample A0 was considered to be measured at 4 °C. From the graphical representation t = Log10(t1/2) (Fig. 2c), we could extract a half-life for each construct at any temperature to define the improvement in stability of the various mutants compared to WT A2AR.

[^3H]ZM241385-bound A2AR [3] = molecular target: T2, [^3H]ZM241385-bound A2AR (Homo sapiens, UniProt P29274); test: Thermostability assay of detergent-solubilised receptor with [3H]ZM241385 bound; assay type: physicochemical; conditions: identical conditions; DDM
T2 construct: The library of Ala/Leu scan mutants in the receptor A2aR-(2–316) was expressed from plasmid pRG/III-hs-MBP in E. coli strain DH5α; made in house; host or cells: Escherichia coli DH5α
Description: (§4) An aliquot of E. coli cells (14 mL) was thawed on ice and resupended in 500 μL of buffer A [50 mM Tris–HCl (pH 7.4), 0.4 M NaCl, 250 μg/mL lysozyme (Sigma) and 1 mg/mL DNase I (Sigma), supplemented with complete ethylenediaminetetraacetic acid (EDTA)-free Protease inhibitor cocktail (Roche)] and incubated for 1 h at 4 °C. Samples were then sonicated for 1 min at 4 °C using a cup-horn sonicator. The receptors were solubilised by adding 1% DDM and incubated for 1 h at 4 °C. Insoluble material was removed by centrifugation (5 min, 13,000g, 4 °C). The solubilised receptors were partially purified with Ni-NTA agarose (Qiagen). Agarose beads (300 μL) pre-equilibrated in buffer A were added to 700 μL of solubilised receptor. […].
as §2

[^3H]ZM241385-bound A2AR [4] = as above; assay type: physicochemical, human
Description: as §4, §2

[5] = molecular target: A2AR-GL26 (L48A-Q89A-T65A-A54L) (Homo sapiens, UniProt P29274, A54L/L48A/Q89A/T65A)
[^3H]NECA-bound A2AR [6] = molecular target: T3, [^3H]NECA-bound A2AR (Homo sapiens, UniProt P29274, L48A/Q89A/T65A); test: Thermostability assay of detergent-solubilised receptor with [3H]NECA bound (ligand plus format); assay type: physicochemical; conditions: [3H]NECA bound
T3 construct: The library of Ala/Leu scan mutants in the receptor A2aR-(2–316) was expressed from plasmid pRG/III-hs-MBP in E. coli strain DH5α; made in house; host or cells: Escherichia coli DH5α
Description: as §1, §2, §3

A2AR-GL26 (L48A-Q89A-T65A-A54L), sequence (P29274 whole entry L48A/A54L/T65A/Q89A): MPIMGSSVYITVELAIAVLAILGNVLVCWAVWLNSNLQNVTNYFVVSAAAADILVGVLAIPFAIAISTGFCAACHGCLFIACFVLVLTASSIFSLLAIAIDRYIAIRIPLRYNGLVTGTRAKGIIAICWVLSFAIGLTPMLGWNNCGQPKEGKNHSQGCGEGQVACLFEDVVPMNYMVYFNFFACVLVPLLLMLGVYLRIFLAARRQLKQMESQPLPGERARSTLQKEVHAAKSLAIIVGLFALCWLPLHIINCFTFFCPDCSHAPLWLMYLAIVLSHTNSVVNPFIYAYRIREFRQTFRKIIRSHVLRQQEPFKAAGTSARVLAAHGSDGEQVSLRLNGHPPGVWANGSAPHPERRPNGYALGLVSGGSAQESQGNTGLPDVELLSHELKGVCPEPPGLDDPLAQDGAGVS
T2 sequence (P29274 2-316): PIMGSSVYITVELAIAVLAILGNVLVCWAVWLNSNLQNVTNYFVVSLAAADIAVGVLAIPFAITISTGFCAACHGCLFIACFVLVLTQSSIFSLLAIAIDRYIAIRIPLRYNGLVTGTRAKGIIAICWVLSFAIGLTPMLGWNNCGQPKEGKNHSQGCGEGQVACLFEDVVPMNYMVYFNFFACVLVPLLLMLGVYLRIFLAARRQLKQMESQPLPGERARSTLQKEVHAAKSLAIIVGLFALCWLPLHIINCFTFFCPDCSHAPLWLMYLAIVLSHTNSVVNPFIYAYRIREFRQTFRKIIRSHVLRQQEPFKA
T1 sequence (P29274 2-316): as above

For “WT A2AR: wild-type human adenosine A2A receptor [reference compound]”, the “Apparent Tm in DM” value ([^3H]NECA-bound A2AR [1]) is listed as 23 °C, the “Apparent Tm in DDM, Final values” ([^3H]NECA-bound A2AR [2]; [3H]NECA bound, 0.025% DDM, replicate experiments) is listed as 28.6 ± 0.2 °C and 28.6 ± 0.2 (n = 8) °C and the “Apparent Tm, Agonist [^3H]NECA” value ([^3H]NECA-bound A2AR [2]; [3H]NECA bound, DDM, 30 min heating, single thermostability curve, estimated error ± 0.5 °C) is listed as 28.5 °C. For the same molecule, the “Stability of [3H]ZM241385-bound versus [3H]NECA-bound A2AR” value ([^3H]ZM241385-bound A2AR [3]) was 3.5 °C, the “Apparent Tm, Antagonist [^3H]ZM241385” value ([^3H]ZM241385-bound A2AR [4]; [3H]ZM241385 bound, DDM, 30 min heating, single thermostability curve) was 32.0 ± 0.1 °C and the “Apparent Tm, Antagonist [^3H]ZM241385” value ([^3H]ZM241385-bound A2AR [4]; [3H]ZM241385 bound, DDM, 30 min heating, single thermostability curve, listed as WT) was 32 °C.

With `Nc1nc2ccc(Cl)cc2c2nc(-c3ccco3)nn12` [CGS15943] the “Reduction of binding affinity versus WT A2AR” value [5] was 320 fold.

B1: GL0: A2AR point mutant L48A, renamed GL0 (protein, UniProt P29274 1-412, looked up, variant L48A)
Adenosine receptor A2a: MPIMGSSVYITVELAIAVLAILGNVLVCWAVWLNSNLQNVTNYFVVSAAAADIAVGVLAIPFAITISTGFCAACHGCLFIACFVLVLTQSSIFSLLAIAIDRYIAIRIPLRYNGLVTGTRAKGIIAICWVLSFAIGLTPMLGWNNCGQPKEGKNHSQGCGEGQVACLFEDVVPMNYMVYFNFFACVLVPLLLMLGVYLRIFLAARRQLKQMESQPLPGERARSTLQKEVHAAKSLAIIVGLFALCWLPLHIINCFTFFCPDCSHAPLWLMYLAIVLSHTNSVVNPFIYAYRIREFRQTFRKIIRSHVLRQQEPFKAAGTSARVLAAHGSDGEQVSLRLNGHPPGVWANGSAPHPERRPNGYALGLVSGGSAQESQGNTGLPDVELLSHELKGVCPEPPGLDDPLAQDGAGVS
In the case of B1, the “Apparent Tm in DDM, Single measurement” value ([^3H]NECA-bound A2AR [2]) is reported as 42.5 °C, the “Improvement in stability (apparent Tm) of NECA-bound A2AR versus WT” value ([^3H]NECA-bound A2AR [2]; [3H]NECA bound, DDM) is reported as 13.6 °C and the “Improvement in stability compared to WT based on t1/2 (decrease in rate of unfolding)” value (from here on “Improvement … (decrease in rate of unfolding)”) ([^3H]NECA-bound A2AR [2]; [3H]NECA bound, DDM) is reported as 49 fold. For the same molecule, the “Apparent Tm, Antagonist [^3H]ZM241385” value ([^3H]ZM241385-bound A2AR [4]) was 0 ^b °C and the “Binding of [^3H]ZM241385” value ([^3H]ZM241385-bound A2AR [4]; at 4 °C, 100 nM radioligand) was “did not bind”.

B2: V282A: A2AR point mutant V282A (protein, UniProt P29274 1-412, looked up, variant V282A)
Adenosine receptor A2a: MPIMGSSVYITVELAIAVLAILGNVLVCWAVWLNSNLQNVTNYFVVSLAAADIAVGVLAIPFAITISTGFCAACHGCLFIACFVLVLTQSSIFSLLAIAIDRYIAIRIPLRYNGLVTGTRAKGIIAICWVLSFAIGLTPMLGWNNCGQPKEGKNHSQGCGEGQVACLFEDVVPMNYMVYFNFFACVLVPLLLMLGVYLRIFLAARRQLKQMESQPLPGERARSTLQKEVHAAKSLAIIVGLFALCWLPLHIINCFTFFCPDCSHAPLWLMYLAIVLSHTNSAVNPFIYAYRIREFRQTFRKIIRSHVLRQQEPFKAAGTSARVLAAHGSDGEQVSLRLNGHPPGVWANGSAPHPERRPNGYALGLVSGGSAQESQGNTGLPDVELLSHELKGVCPEPPGLDDPLAQDGAGVS
With B2 the “Apparent Tm, Antagonist [^3H]ZM241385” value ([^3H]ZM241385-bound A2AR [4]) was 33 °C and the “ΔTm, Antagonist [^3H]ZM241385” value ([^3H]ZM241385-bound A2AR [4]) was “+ 1 °C”.

B3: A50L: A2AR point mutant A50L (protein, UniProt P29274 1-412, looked up, variant A50L)
Adenosine receptor A2a: MPIMGSSVYITVELAIAVLAILGNVLVCWAVWLNSNLQNVTNYFVVSLALADIAVGVLAIPFAITISTGFCAACHGCLFIACFVLVLTQSSIFSLLAIAIDRYIAIRIPLRYNGLVTGTRAKGIIAICWVLSFAIGLTPMLGWNNCGQPKEGKNHSQGCGEGQVACLFEDVVPMNYMVYFNFFACVLVPLLLMLGVYLRIFLAARRQLKQMESQPLPGERARSTLQKEVHAAKSLAIIVGLFALCWLPLHIINCFTFFCPDCSHAPLWLMYLAIVLSHTNSVVNPFIYAYRIREFRQTFRKIIRSHVLRQQEPFKAAGTSARVLAAHGSDGEQVSLRLNGHPPGVWANGSAPHPERRPNGYALGLVSGGSAQESQGNTGLPDVELLSHELKGVCPEPPGLDDPLAQDGAGVS
For B3, the “Apparent Tm, Antagonist [^3H]ZM241385” value ([^3H]ZM241385-bound A2AR [4]) was 38.5 °C and the “ΔTm, Antagonist [^3H]ZM241385” value ([^3H]ZM241385-bound A2AR [4]) was “+ 6.5 °C”.

B4: GL23: A2AR mutant L48A-Q89A-T65A (protein, UniProt P29274 1-412, looked up, variant L48A Q89A T65A)
Adenosine receptor A2a: MPIMGSSVYITVELAIAVLAILGNVLVCWAVWLNSNLQNVTNYFVVSAAAADIAVGVLAIPFAIAISTGFCAACHGCLFIACFVLVLTASSIFSLLAIAIDRYIAIRIPLRYNGLVTGTRAKGIIAICWVLSFAIGLTPMLGWNNCGQPKEGKNHSQGCGEGQVACLFEDVVPMNYMVYFNFFACVLVPLLLMLGVYLRIFLAARRQLKQMESQPLPGERARSTLQKEVHAAKSLAIIVGLFALCWLPLHIINCFTFFCPDCSHAPLWLMYLAIVLSHTNSVVNPFIYAYRIREFRQTFRKIIRSHVLRQQEPFKAAGTSARVLAAHGSDGEQVSLRLNGHPPGVWANGSAPHPERRPNGYALGLVSGGSAQESQGNTGLPDVELLSHELKGVCPEPPGLDDPLAQDGAGVS
For B4, the “Decrease in stability in DM compared with DDM” value ([^3H]NECA-bound A2AR [6]) was 7.7 °C, the “Apparent Tm in DDM, Single measurement” value ([^3H]NECA-bound A2AR [2]) was 50 °C and the “Improvement … (decrease in rate of unfolding)” value ([^3H]NECA-bound A2AR [2]; [3H]NECA bound, DDM) was 226 fold. For the same molecule, the “Improvement … (decrease in rate of unfolding)” value ([^3H]NECA-bound A2AR [2]; [3H]NECA bound, DDM, listed as A2AR-GL23) was “about 230 fold”.

B5: S47A: A2AR point mutant S47A (protein, UniProt P29274 1-412, looked up, variant S47A)
Adenosine receptor A2a: MPIMGSSVYITVELAIAVLAILGNVLVCWAVWLNSNLQNVTNYFVVALAAADIAVGVLAIPFAITISTGFCAACHGCLFIACFVLVLTQSSIFSLLAIAIDRYIAIRIPLRYNGLVTGTRAKGIIAICWVLSFAIGLTPMLGWNNCGQPKEGKNHSQGCGEGQVACLFEDVVPMNYMVYFNFFACVLVPLLLMLGVYLRIFLAARRQLKQMESQPLPGERARSTLQKEVHAAKSLAIIVGLFALCWLPLHIINCFTFFCPDCSHAPLWLMYLAIVLSHTNSVVNPFIYAYRIREFRQTFRKIIRSHVLRQQEPFKAAGTSARVLAAHGSDGEQVSLRLNGHPPGVWANGSAPHPERRPNGYALGLVSGGSAQESQGNTGLPDVELLSHELKGVCPEPPGLDDPLAQDGAGVS
For B5, the “Apparent Tm, Antagonist [^3H]ZM241385” value ([^3H]ZM241385-bound A2AR [4]) was 25.5 °C and the “ΔTm, Antagonist [^3H]ZM241385” value ([^3H]ZM241385-bound A2AR [4]) was “− 6.5 °C”.

Source: paper PMC3145977, “Thermostabilisation of an Agonist-Bound Conformation of the Human Adenosine A2A Receptor” (Journal of Molecular Biology, 2011)
